Assay [1] deals with human FcRn fused to a His-tag and glutathione S transferase (FcRn-His-GST), complex of FcRn heavy chain with beta-2-microglobulin (human) (UniProt P55899). Nature of the assay: AlphaScreen competition, 25 mM NaCl.
For assay [2] the target is unchanged. Nature of the assay: AlphaScreen competition, […] NaCl. Background: In Alpha technology, singlet oxygen from a donor bead excites a nearby acceptor bead.
Assay [3] has the same target. Nature of the assay: AlphaScreen competition.

Regarding ^281D (antibody), the Medan Fold Increase in assay [1] turned out to be 0.89. Regarding V308F AC10 - IgG1 (antibody), the FcRn Binding Fold-Increase in assay [2] was 46.1. The substance ^281S/V308Y (antibody) registered a Medan Fold Increase in assay [1] of 1.46. As for P257N/^281S (antibody), in assay [1], the Medan Fold Increase was 5.99. On to P257L AC10 - IgG1 (antibody), for which the FcRn Binding Fold-Increase in assay [2] is 44. For ^281S/V308F (antibody), the Medan Fold Increase in assay [1] stood at 2.13. With E318R (antibody), the FcRn Binding ratio Variant / WT in assay [3] was 1.17. Same read-out and setting: the same measure for E269F (antibody): 1.51; for P331L (antibody): 1.77. Same read-out and setting: the same measure for H285D (antibody): 2.4.

Take P238F (antibody): the FcRn Binding ratio Variant / WT in assay [3] was 2.41. On to L234I/L235D (antibody), for which the FcRn Binding ratio Variant / WT in assay [3] is 1.03.

G236N (antibody): in assay [3], the FcRn Binding ratio Variant / WT is 1.89. Still for that read-out and setting: the same measure for S324T (antibody): 1.07. Regarding V264I/I332E (antibody), the FcRn Binding ratio Variant / WT in assay [3] stood at 1.7. The same measure, in the same setting: the same measure for L235S (antibody): 1.51. ^281T (antibody) came in with a Medan Fold Increase in assay [1] of 0.56.

With S239E/I332E (antibody), the FcRn Binding ratio Variant / WT in assay [3] was determined as 1.34. Regarding E269S (antibody), the FcRn Binding ratio Variant / WT in assay [3] is 1.31.

For E294G (antibody), in assay [3], the FcRn Binding ratio Variant / WT is 1.25.

With V263I (antibody), the FcRn Binding ratio Variant / WT in assay [3] is 2.71. Still for that read-out and setting: the same measure for V240I (antibody): 1.28; for E294K (antibody): 1.16. Still for that read-out and setting: the same measure for E272V (antibody): 1.77; for I332V (antibody): 59.3; for T260D (antibody): 1.71.

For P238W (antibody), in assay [3], the FcRn Binding ratio Variant / WT turned out to be 1.3. The same measure, in the same setting: the same measure for L235V (antibody): 1.31; for V282K (antibody): 1.44.

As for D221Y (antibody), the FcRn Binding ratio Variant / WT in assay [3] came to 2.74. Still for that read-out and setting: the same measure for E269Y (antibody): 24.8; for F241W (antibody): 1.7; for T299W (antibody): 1.09. On to E269I (antibody), for which the FcRn Binding ratio Variant / WT in assay [3] came to 1.26.

For the substance G237M (antibody), the FcRn Binding ratio Variant / WT in assay [3] is 73.4. The same measure, in the same setting: the same measure for A330H (antibody): 9.87; for T335S (antibody): 1.42.

In the case of G237E (antibody), in assay [3], the FcRn Binding ratio Variant / WT was 1.36.

Turning to T335F (antibody), the FcRn Binding ratio Variant / WT in assay [3] turned out to be 1.19. P291Q (antibody): in assay [3], the FcRn Binding ratio Variant / WT turned out to be 1.24. In the case of P238V (antibody), the FcRn Binding ratio Variant / WT in assay [3] worked out at 1.43. Still for that read-out and setting: the same measure for I332Q (antibody): 1.2.

In the case of L235Q (antibody), in assay [3], the FcRn Binding ratio Variant / WT came out at 1.67. In the case of S304T (antibody), in assay [3], the FcRn Binding ratio Variant / WT stood at 2.86.

For the substance R255E (antibody), in assay [3], the FcRn Binding ratio Variant / WT was found to be 1.16. Regarding G237T (antibody), the FcRn Binding ratio Variant / WT in assay [3] was 1.32. On the same count and under the same terms, the same measure for N276W (antibody): 2; for G237N (antibody): 1.39.

K246Y (antibody): the FcRn Binding ratio Variant / WT in assay [3] was determined as 2.47. On the same count and under the same terms, the same measure for K274I (antibody): 1.08; for P238G (antibody): 1.53; for T335M (antibody): 1.35. For the substance V264D (antibody), the FcRn Binding ratio Variant / WT in assay [3] was 7.67.

On to L234F (antibody), for which the FcRn Binding ratio Variant / WT in assay [3] was determined as 1.46.

For T260Y (antibody), in assay [3], the FcRn Binding ratio Variant / WT was 7.51. Same read-out and setting: the same measure for E233T (antibody): 1.19; for T225W (antibody): 6.89. In the case of G236P (antibody), the FcRn Binding ratio Variant / WT in assay [3] turned out to be 1.41. On to V266I (antibody), for which, in assay [3], the FcRn Binding ratio Variant / WT came out at 1.17. On the same count and under the same terms, the same measure for S239M (antibody): 1.03; for H285Y (antibody): 1.25. In the case of E272H (antibody), in assay [3], the FcRn Binding ratio Variant / WT was 1.45.

As to A327D (antibody), the FcRn Binding ratio Variant / WT in assay [3] was determined as 1.01.

For the origin of these results see patent publication US20090041770A1.
